Measured values from the nanobody polyreactivity screen of Harvey et al. (2022).

assay: yeast display, Sf9 membrane polyspecificity reagent, FACS + sequencing; frameworks hold sequencing errors
Procedure, shortened: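 Synthetic nanobody libraries on Saccharomyces cerevisiae BJ5465 were galactose-induced for 36–48 hours, stained 1 hour at 4 °C with 10% biotinylated, detergent-solubilized Sf9 membrane reagent and enriched on streptavidin microbeads. FACS then separated cells into low and high (top ~1%) gates by anti-HA (expression) and streptavidin (reagent binding) fluorescence. Genes were colony-PCR amplified, MiSeq 2 × 250 sequenced and CDR-length filtered. A clone's polyreactivity label is that of its gate of origin.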

Sequence | polyreactivity (PSR sort gate)
QVQLVESCGGLVQAGGRLRLICAASGRTFTYNAMGWYIQAPGQERELVAAINFSGVSTYYADSVKGRFTISRDNAKYTVYLQMNSLKPEDTAVYSCNTVGYHYESDYWGQGTQVTVSS | high polyreactivity
QVQLVESCGGLVQAGGRLRLSCAASGRIFYSYAMGWSRQAPGKERELVAAITVSGGSTFYADSVKGRFTISRDNAKNTVYLQMNSLKPEDTAVYYCNAPKRYSTIGYDYWGQGSQVTVSS | high polyreactivity
QVQLVESCGGLVQAGGSHRLSCAASGRTFRYYAMGWYRQAPWKERELVAAIRRGGSTTYADSVKVRFTISRDNAKNTVYLQMNSLKPEDTAVYYCAARYPGTRGDGYWGQGTQVTVSS | high polyreactivity
QVQLVESCGGLVQAGGSHRLSCAASGSTFKGYDMGWYRQAPGKERELVAAIDSGGSTYYADSVKGRFTISRDNAKNTVYLQMNSLKPEDTAVYYCAATGQDTYGLDVVDEYDYWGQGTQVTVSS | low polyreactivity
QVQLVESCGGLVQAGGSLPLSCAASGFTFYYYTMGWYRQAPGKERELVAVITGGGGSTYYADSVKGRFTISRDNAKNTVYLQMNSLKPEDTAVYYCAAKFYGWYRERGYDYWGQGTQVTVSS | high polyreactivity
QVQLVESCGGLVQAGGSLRLISAASGRTFGHNTMGWYRQAPGKEREYVAAIRWTAGSTYYADSVKGRFTISRDNAKNTVYLQMNSLKPEDTAVYYCAAYYVERRSYRVDRGTTLGYWGQGTQVTVSS | high polyreactivity
QVQLVESCGGLVQAGGSLRLSCAASGFIFYDYDMGWYRQAPGKQRELVAAITYSGASTYYADSVKGRFTISRDNAKNTVYLQMNSLKPEDTAVFYCAAVKSRYADAVDYYYWGQGTQVTVSS | low polyreactivity
QVQLVESCGGLVQAGGSLRLSCAASGGTFGFYAMGWYRQAPGKERELVAAISRRGGSTYYADSVKGRFTISRDNAKNTVYLQMNSLKPEDTAVYYCAARVYRYRHYDYWGQGTQVTVSS | high polyreactivity
QVQLVESCGGLVQAGGSLRLSCAASGHIFFYYTMGWYRQAPGKQRELVAGITIGGSTNYADSVKGRFTISRDNAKNTVYLQMNSLKPEDTAVYYCNVVKYVYIYSYWEYYYWGQGTQVTVSS | low polyreactivity
QVQLVESCGGLVQAGGSLRLSCAASGIIFSVNAMGWSRQAPGKERELVAAITIGGSTYYADSVKGRFTISRDNAKNTVYLQMNSLKPEDTAVYYCAADEYGPHTFSPESDSWGQGTQVTVSS | low polyreactivity
QVQLVESCGGLVQAGGSLRLSCAASGLIFWKYAMGWYRQAPGKERELVAAITSGGSTNYADSVKGRFTISRDNAKNTVYLQMNSLKPEDTAVYYCNARSWFEYYWGQGTQVTVSS | high polyreactivity
QVQLVESCGGLVQAGGSLRLSCAASGRIFGIYSMGWYRQAPGKEREVVARITKSGGSTYYADSVKGRFTISRDNAKNTVYLQMNSLKPEDTAVYYCAASYYGKRDRAGPYYSFDYWGQGTQVTVSS | high polyreactivity
QVQLVESCGGLVQAGGSLRLSCAASGRTFGVYAMGWYRQAPGKERDLVAAINYSGGSTYYADSVKGRFTISRDNAKNTVYLQMNSLKPEDTAVYSCNKGPLISYAYRYYQPYDYWGQGTQVTVSS | low polyreactivity
QVQLVESCGGLVQAGGSLRLSCAASGRTFVTYAMGWYRQAPGKERELVAAISKRGSRTYYAYSVKGRFTISRDNAKNTVYLQMNSLKPEDTAVYYCNADPYRTSYDYWGQGTQVTVSS | high polyreactivity
QVQLVESCGGLVQAGGSLRLSCAASGRTFYGYAMGWYRQAPGKERELVAAITASGGSTNYADSVKGRFTISRDNAKNTVYLQMNSLKPEDTAVYYCAARVYYLGQFYWYGYWGQGTQVTVSS | high polyreactivity
QVQLVESCGGLVQAGGSLRLSCAASGRTFYKAMGWYRQAPGKERELVAASTTGGGTKYADSVKGRFTISRDNAQNTVYLQMNSLKPEDTAVYYCNTDEWYHFYHGAHKYDYWGQGTQVTVSS | low polyreactivity
QVQLVESCGGLVQAGGSLRLSCAASGSIFGTNAMGWYRQAPGKERELVASITRGGSTNYADSVKGRFTISRDNAKNTVYLQMNSLTPEDTAVYYCNAQGHWRWWGYDYWGQGTQVTVSS | low polyreactivity
QVQLVESCGGLVQAGGSLRLSCAASGSTFGYYTMGWYRQAPGKEREFVAAITRSTGSTFYADSVKGRFTISRDNAKNTVYLQMNRLKPEDTAVYDCAATQPWYNTRTRYGSWGQGTQVTVSS | low polyreactivity
QVQLVESCGGLVQAGGSLRLSCAASGSTFILYAMGWYRPAPGKERELVAAISWSTGITYYADSVKGRFTISRDNAKNTVYLPMNSLKPEDTAVYYCAADAWGYHDYDASYSTGYEYWGQGTQVTVSS | high polyreactivity
QVQLVESCGGLVQAGGSLRLSCAASGSTIVSNAMGWNRQAPGKERDLVAAITSGGTTNYADSVKGRFTISRDNAKNTVYLQMISLKPEETAVYYCAKRETVYYVNHPFTYSHDYCGQGTQVTVSS | low polyreactivity
QVQLVESCGGLVQAGGSLRLSCAASGYTFGYYAMGWYRQAPGKERELVAAISWRGARTNYADSVKGRFTISRDNAKNNVYLQMNSLKPEDTAVYYCNAPKHNTVYTDRYDYWGQGTQVTVSS | high polyreactivity
QVQLVESCGGLVQAGGSLRLSCAASGYTFRYYAMGWYRQAPGKERELVARITGRAGSTYYADSVKGRFTISRDNAKNTVYLQMNSLKPEDTAVYYCAASIREGFYWGHGTQVTVSS | high polyreactivity

Sequence | polyreactivity (PSR sort gate)
QVQLVESCGGLVQAGGSLRLSCAASRLIFGYYAMGWYRQAPVKERELVASISSGGRTYYADSVKGRFTISRDNAKNTVNLQMNSLKPEDTAVYYCNAVKGWFVYEYDYWGQGTQVTVSS | low polyreactivity
QVQLVESCGGLVQAGGSLRLSCAATGLIIRGNDMVWYRQAPWKERELVAGINSSGSTNYADSVKVRFTISRDNAKNTVYLQMNSLKPEDTAVYYCAARAIVSFDYWGQGTQVTVSS | low polyreactivity
QVQLVESCGGLVQAGGSLRLSCAAYGSIFTFYAMGWYRQAPGKERELVAAISSGGDTYYADSVTGRFTISRDNAKNTVYLQMNSLKPEDTAVYYCAADWRGSYLYGYYYWGQGTQVTASS | low polyreactivity
QVQLVESCGGLVQAGGSLRLSCADSGRTFYKYAMGWYRPAPVKERELVAAITSGGGRTYYADSVKGRFTISRDNAKNTVYLQMNSLKPEDTAVYYCNAVLPLAKYEYDSWGQGTQVTVSS | high polyreactivity
QVQLVESCGGLVQAGGSLSLSCAASGSTFNHYAMGWYRQATGKEREFVAAISWSGGSTYYADYVQGRFTISRDNAKNTGYLQMNSLKPEDTAVYYCNAAVSQFSHRWRRRLTFDYWGQGTQVTVSS | high polyreactivity
QVQLVESCGVLVQAGGSLRLSCAASGFILYGNAMGWYRQAHGKERELVAAISRRGGSTYYADSVKGRFTISRDNAKNTVYLQMNSLKPEDTAVYYCAKDGPGGGTRIYDYWGLGTQVTVSS | high polyreactivity
QVQLVESDGGLVQAGGSLRLSCAASGYIFGGYAMRWYRHAPGKERELVAAISYGVGSTYYADSVKGRFTISRDNAKNTVYLQMNSLKPEDTAVYYCAADVFFYVYEAYLLYYWGQGTQVTVSS | low polyreactivity
QVQLVESEGGLVQAGGSLRLSCAASGFIFKYNDMGWYRQAPGKERELVAAIDVRTGLTYYADSVKGRFTISRDNAKTTVYLQMNSLKPEDPAVYYCNADYIQYAYDYWGQGTQVTVSS | high polyreactivity
QVQLVESGAGIVQAGGSLRLSCAASGNSYGYAMGWYRQAPGKERELVAAITSGASDTYYADSVKGRFTISRDNAKKTVYLQMNSLKPEDTAVYYCAAVDYTNRYDPYDYWGQGTQVTVSS | low polyreactivity
QVQLVESGAGIVQAGGSLRLSCAASGSILWHNAMGWYRQAPGKEREYVDAISARGTRTYYADSVKGRFTISRDNAKNTVYLQLKSLNPEDTAVYYCAARYWDDRARAEDYWGQVTQVTVSS | high polyreactivity
QVQLVESGAGLFQAGGRLRLSCAASGRTFQVYAMAWYRHAPGTERELVAAIDLGGGSTYYADSVKGRFTISRDNAKNTVYLQMNSLKQEDTAVYYCAADVGLRFDYWGQGTQVTVSS | high polyreactivity
QVQLVESGAGLFQAGGRLRLSCAPSGSTFGTYAMGWYRQAPGKERELVAAITSGGSTDYADSVKGRFTISRDNAKNTVYLQMNSLKPEDTAVYYCNATWELLSYYYLFWGYDYWGQGTQVTVSS | low polyreactivity
QVQLVESGAGLFQAGGSLRLTCAPSGSIFAFNTMGLYRQAPGKERHLVAAITWGGGSTYYADSVKGRFTISRDNAKNTVYLQMYSLKPEDTAVYYCATKAKYGRQFLMEYWGQGTQVTVSS | high polyreactivity
QVQLVESGAGLLQAGGSLRLSCAASGFIFVTYAMGWYRQAPGKERELVAAITNSGGTTYYADSVKGRFTISRDNAKNTVYLQMISLKPEDTAVYYCNKAYGAETAHREFVYWGQGTQVTVSS | low polyreactivity
QVQLVESGAGLVHAGGSLRLSCAASGRIFNYYAMGWYRQAPGKESELVAGINWSGTRTYYADSVKGRFTISRDNAKITVYLQMNSLKPEDTAVYYCNAGRTWRAFTGDEYWVQGTQVTVSS | high polyreactivity
QVQLVESGAGLVKAGGSLRLSCASSGRILDFYDMGWYRQAPGKERELVAAITSGTSTYYADSVKGRFTISRDNAKYTVYLQMNSLKPEDTAVYYCAAAHVPVGQYVYWYDYWGQGTQVTVSS | low polyreactivity
QVQLVESGAGLVQAAGSLRLICASSGFILLDKAMGWYRQAPGKEREFVASINISGARTFYADSVKGRFTISRDTAKNTVYLQMNSLKPEDTAVYYCAKEPGWGRRSTTAYDYWGQGTQVTVSS | low polyreactivity
QVQLVESGAGLVQAAGSLRLSCAASGRTFSRNAMGWYRQAPGQERELVARIRSGGSTYYADSVKGRFTISRDNAKNTVYLQMNSLKPDETAVFYLAADRYGYQFDYWGQGTQVTVSS | high polyreactivity
QVQLVESGAGLVQAGGSLRISCAASGFIFNEYAMGWYRQAPGKERELVAAISSGGSTYYADSVKGRFTISRDNAKNTVYLLINSLKPEDTAVYYCNALRRSQPWKYDYWGPGTQVTVSS | low polyreactivity
QVQLVESGAGLVQAGGSLRISCAASGFTFAYYAMGWYRQAPGKEREFVAAITKGGGSTNYADSVKGRFTISRYNAKNTVYLQMNSLNPEDTAVYYCNADYFVWYIGRVFSRYGYWGQGTQVTVSS | low polyreactivity
QVQLVESGAGLVQAGGSLRISCAASGITFYRNAMGWYRQAPGKERELVAAITWNGGRTYYADSVKGRFTISRDNAKNTVYLQMNSLNPEDTAVYYCAKRYGSTQSRYDFWGPGTQVTVSS | high polyreactivity
